In article PMC5497066, “GroEL actively stimulates folding of the endogenous substrate protein PepQ” (Nature Communications, 2017):
Substitutions are numbered along the chain they refer to. In names and notes the source's numbering stands. Each block holds one binder with its values, some of them ahead of it.

Legend:
[1] = target: T1, wild-type GroEL tetradecamer (E. coli, UniProt P0A6F5 1-548); assay: cryo-EM structure; acid-urea denatured PepQ (7 μM final) titrated into GroEL or Δ526 (8 μM tetradecamers) in TKM buffer, no nucleotide, room temperature 5 min; asymmetric 3D classification and refinement; settings: both partners purified
T1 construct: GroEL (Hsp60 chaperonin), E. coli, homo-oligomer of 14 subunits of 57 kDa in two seven-membered rings; also called WT; full-length GroEL; source: E. coli BL21, purified (anion exchange, ammonium sulfate precipitation, Affi Blue Gel); copies: 14

[2] = target: single-ring truncation mutant, SRΔ526 (E. coli); assay: cell-based or functional assay
[3] = target: T2, asymmetric wild-type GroEL-GroES-ADP complex (E. coli, UniProt P0A6F5 1-548; P0A6F9 1-97); assay: protease protection (encapsulation); denatured PepQ-24F (100 nM) bound to wild-type or Δ526 GroEL-GroES-ADP bullets (200 nM) or full-length or Δ526 single-ring GroEL (300 nM) with GroES (600 nM); single turnover with ATP (2 mM), quenched after 10 s; unencapsulated PepQ digested with Proteinase K; SDS-PAGE, fluorescein scan; settings: both partners purified
T2 construct: GroEL, E. coli, wild type; GroES, ring-shaped co-chaperonin, E. coli; GroES caps one ring; also called GroEL-GroES-ADP bullets; source: GroEL from E. coli BL21 and GroES from E. coli BL21(DE3), each purified; complex formed beforehand with ADP; copies: 14 +

[4] = target: T1, wild-type GroEL tetradecamer; assay: fluorescence correlation spectroscopy; acid-urea denatured PepQ-24TMR (2 nM) with GroEL (1 μM) in TKM buffer (50 mM Tris-HCl, pH 7.4, 50 mM KOAc, 10 mM Mg(OAc)2, 2 mM DTT); shift in diffusion time; settings: both partners purified

binding result [1]: binds | observed folding rate constant of PepQ by recovery of enzymatic activity, bound to SRΔ526 (300 nM) and refolded with GroES (600 nM) and ATP (2 mM) [2]: 0.332 min⁻¹
B1: wild type E. coli PepQ (enzyme, UniProt P21165 1-443, looked up)
chain: MESLASLYKNHIATLQERTRDALARFKLDALLIHSGELFNVFLDDHPYPFKVNPQFKAWVPVTQVPNCWLLVDGVNKPKLWFYLPVDYWHNVEPLPTSFWTEDVEVIALPKADGIGSLLPAARGNIGYIGPVPERALQLGIEASNINPKGVIDYLHYYRSFKTEYELACMREAQKMAVNGHRAAEEAFRSGMSEFDINIAYLTATGHRDTDVPYSNIVALNEHAAVLHYTKLDHQAPEEMRSFLLDAGAEYNGYAADLTRTWSAKSDNDYAQLVKDVNDEQLALIATMKAGVSYVDYHIQFHQRIAKLLRKHQIITDMSEEAMVENDLTGPFMPHGIGHPLGLQVHDVAGFMQDDSGTHLAAPAKYPYLRCTRILQPGMVLTIEPGIYFIESLLAPWREGQFSKHFNWQKIEALKPFGGIRIEDNVVIHENNVENMTRDLKLA
notes: PepQ (Xaa-Pro dipeptidase, prolidase), E. coli, monomer of about 50 kDa; native form is a homodimer; also called prolidase; metalloprotease PepQ; source: E. coli BL21(DE3), purified (anion exchange, ammonium sulfate, Phenyl Sepharose)

binding result [3]: binds
B2: PepQ-24F (enzyme, E. coli, UniProt P21165 1-443, looked up)
chain: B1 chain with A24C
modifications: fluorescein (5-iodoacetamidofluorescein) on the cysteine at position 24
notes: PepQ, E. coli, with the surface-exposed cysteine A24C; also called Fluorescein-labelled PepQ; A24C PepQ labelled with fluorescein; source: E. coli BL21(DE3), purified, labelled and re-purified (PD-10, MonoQ)

binding result [4]: binds
B3: PepQ-24TMR (enzyme, E. coli, UniProt P21165 1-443, looked up)
chain: B1 chain with A24C
modifications: tetramethylrhodamine (tetramethylrhodamine-5-iodoacetamide) on the cysteine at position 24
notes: PepQ, E. coli, with the surface-exposed cysteine A24C in the first helix of the N-terminal domain; also called PepQ-TMR; A24C PepQ labelled with tetramethylrhodamine; source: E. coli BL21(DE3), purified, labelled and re-purified (PD-10, MonoQ)
